Non-standard residues stand in square brackets, D forms with d. No end group written: not given here. *: point of attachment. Palmitoyl = CCCCCCCCCCCCCCCC(=O)*; AEEEA = NCCOCCOCCOCC(=O)O; AEEA = NCCOCCOCC(=O)O
How the values were obtained:
Assay in all cases: cell-based or functional assay
[1] = target: T1, CLR/RAMP1 receptor (UniProt Q16602 23-461; O60894 27-148, limits assumed)
[2] = target: T2, CLR/RAMP2 receptor (UniProt Q16602 23-461; O60895 43-175, limits assumed)
[3] = target: T1, CLR/RAMP1 receptor; remark: listed apart in the source
[4] = target: T2, CLR/RAMP2 receptor; remark: listed apart in the source
[5] = target: T3, CLR/RAMP3 receptor (UniProt Q16602 23-461; O60896 24-148, limits assumed)
[6] = target: T3, CLR/RAMP3 receptor; remark: listed apart in the source

T3 sequence (Q16602 23-461 limits assumed, chain 1 of 2): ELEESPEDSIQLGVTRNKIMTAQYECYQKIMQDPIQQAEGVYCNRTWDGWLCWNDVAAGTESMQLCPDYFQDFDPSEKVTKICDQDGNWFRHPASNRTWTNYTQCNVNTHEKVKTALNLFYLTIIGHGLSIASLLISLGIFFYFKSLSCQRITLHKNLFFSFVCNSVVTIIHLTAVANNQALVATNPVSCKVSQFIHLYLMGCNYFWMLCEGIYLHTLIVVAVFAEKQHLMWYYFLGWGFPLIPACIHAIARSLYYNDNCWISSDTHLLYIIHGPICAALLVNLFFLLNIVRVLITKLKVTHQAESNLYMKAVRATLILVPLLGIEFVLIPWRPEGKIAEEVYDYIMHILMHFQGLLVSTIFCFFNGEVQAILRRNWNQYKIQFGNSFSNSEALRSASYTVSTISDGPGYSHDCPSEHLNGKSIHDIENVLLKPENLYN
T3 sequence (O60896 24-148 limits assumed, chain 2 of 2): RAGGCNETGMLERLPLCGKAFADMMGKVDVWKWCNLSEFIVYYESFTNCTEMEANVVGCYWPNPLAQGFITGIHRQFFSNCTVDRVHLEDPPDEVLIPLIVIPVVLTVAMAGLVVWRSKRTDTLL
T1 sequence (Q16602 23-461 limits assumed, chain 1 of 2): as the sequence (Q16602 23-461 limits assumed, chain 1 of 2) above
T1 sequence (O60894 27-148 limits assumed, chain 2 of 2): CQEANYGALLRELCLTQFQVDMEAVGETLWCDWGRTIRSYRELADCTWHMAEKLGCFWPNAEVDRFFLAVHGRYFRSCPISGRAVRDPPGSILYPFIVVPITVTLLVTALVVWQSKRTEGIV
T2 sequence (Q16602 23-461 limits assumed, chain 1 of 2): as the sequence (Q16602 23-461 limits assumed, chain 1 of 2) above
T2 sequence (O60895 43-175 limits assumed, chain 2 of 2): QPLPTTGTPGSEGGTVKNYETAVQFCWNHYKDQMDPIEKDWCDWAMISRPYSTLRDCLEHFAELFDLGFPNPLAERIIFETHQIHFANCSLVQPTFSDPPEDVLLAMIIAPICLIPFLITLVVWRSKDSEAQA

Palmitoyl-KVQKLAHQISAPVDPSSPHSY-NH2 [SEQ ID NO: 123]
IC50 (nM), CGRP-stimulated CLR/RAMP1 cAMP assay [1]: 4.7 nM | IC50 (nM), ADM-stimulated CLR/RAMP2 arrestin assay [2]: 50 nM

Palmitoyl-KGCRFGTCTVQKLAHQIYQFTDKDSAPVDPSSPHSY-NH2 (ends and bridges not checked) [SEQ ID NO: 92]
EC50 (nM), CLR/RAMP1 cAMP assay [3]: 0.4 nM | EC50 (nM), CLR/RAMP2 arrestin assay [4]: 0.3 nM | EC50 (nM), CLR/RAMP3 cAMP assay [5]: 0.2 nM

Palmitoyl-KVQKLAHQIYQFTDKDSAPVDPSSPHSY-NH2 [SEQ ID NO: 121]
IC50 (nM), CGRP-stimulated CLR/RAMP1 cAMP assay [1]: 3.2 nM | IC50 (nM), ADM-stimulated CLR/RAMP2 arrestin assay [2]: 4.9 nM | IC50 (nM), CLR/RAMP3 cAMP antagonist assay [6]: 1.8 nM

Palmitoyl-KGCRFGTCTVQKLAHQIYQFTDKDVAPRSKISPQGY-NH2 (ends and bridges not checked) [SEQ ID NO: 103]
EC50 (nM), CLR/RAMP1 cAMP assay [3]: 4.5 nM | EC50 (nM), CLR/RAMP2 arrestin assay [4]: 0.7 nM | EC50 (nM), CLR/RAMP3 cAMP assay [5]: 0.3 nM

B1: SEQ ID NO: 78 (peptide)
peptide: [AEEEA]K(Palmitoyl)VQKLAHQIYQFTDKDKDNSAPVDPSSPHSY-NH2
modifications: N-terminus assumed
SMILES: CCCCCCCCCCCCCCCC(=O)NCCCC[C@H](NC(=O)COCCOCCOCCN)C(=O)N[C@H](C(=O)N[C@@H](CCC(N)=O)C(=O)N[C@@H](CCCCN)C(=O)N[C@@H](CC(C)C)C(=O)N[C@@H](C)C(=O)N[C@@H](Cc1c[nH]cn1)C(=O)N[C@@H](CCC(N)=O)C(=O)N[C@H](C(=O)N[C@@H](Cc1ccc(O)cc1)C(=O)N[C@@H](CCC(N)=O)C(=O)N[C@@H](Cc1ccccc1)C(=O)N[C@H](C(=O)N[C@@H](CC(=O)O)C(=O)N[C@@H](CCCCN)C(=O)N[C@@H](CC(=O)O)C(=O)N[C@@H](CCCCN)C(=O)N[C@@H](CC(=O)O)C(=O)N[C@@H](CC(N)=O)C(=O)N[C@@H](CO)C(=O)N[C@@H](C)C(=O)N1CCC[C@H]1C(=O)N[C@H](C(=O)N[C@@H](CC(=O)O)C(=O)N1CCC[C@H]1C(=O)N[C@@H](CO)C(=O)N[C@@H](CO)C(=O)N1CCC[C@H]1C(=O)N[C@@H](Cc1c[nH]cn1)C(=O)N[C@@H](CO)C(=O)N[C@@H](Cc1ccc(O)cc1)C(N)=O)C(C)C)[C@@H](C)O)[C@@H](C)CC)C(C)C
IC50 (nM), CGRP-stimulated CLR/RAMP1 cAMP assay [1]: 4.8 nM | Max Activity % of positive control, CGRP-stimulated CLR/RAMP1 antagonist assay [1]: 104 % of positive control | IC50 (nM), ADM-stimulated CLR/RAMP2 arrestin assay [2]: 34 nM | Max Activity % of positive control, ADM-stimulated CLR/RAMP2 antagonist assay [2]: 107 % of positive control | IC50 (nM), CLR/RAMP3 cAMP antagonist assay [6]: 0.8 nM | Max Activity % of positive control, CLR/RAMP3 antagonist assay [6]: 101 % of positive control

Palmitoyl-KVQKLAHQIYQFTDKDVAPRSKISPQGY-NH2 [SEQ ID NO: 119]
IC50 (nM), CGRP-stimulated CLR/RAMP1 cAMP assay [1]: 21 nM | IC50 (nM), ADM-stimulated CLR/RAMP2 arrestin assay [2]: 0.6 nM | IC50 (nM), CLR/RAMP3 cAMP antagonist assay [6]: 1.5 nM

[AEEA]K(Palmitoyl)VQKLAHQIYSAPVDPSSPHSY-NH2 [SEQ ID NO: 114]
IC50 (nM), CGRP-stimulated CLR/RAMP1 cAMP assay [1]: 4.8 nM | IC50 (nM), ADM-stimulated CLR/RAMP2 arrestin assay [2]: 146 nM | IC50 (nM), CLR/RAMP3 cAMP antagonist assay [6]: 8.4 nM

Ac-TVQKLAHRLWQLMGPDKDNVAPRSKISPQGY-NH2 [SEQ ID NO: 116]
IC50 (nM), CGRP-stimulated CLR/RAMP1 cAMP assay [1]: 152 nM | IC50 (nM), ADM-stimulated CLR/RAMP2 arrestin assay [2]: 7.3 nM | IC50 (nM), CLR/RAMP3 cAMP antagonist assay [6]: 53 nM

Palmitoyl-KVQKLAHQSAPVDPSSPHSY-NH2 [SEQ ID NO: 124]
Max Activity % of positive control, CGRP-stimulated CLR/RAMP1 antagonist assay [1]: 95 % of positive control | Max Activity % of positive control, ADM-stimulated CLR/RAMP2 antagonist assay [2]: 103 % of positive control | Max Activity % of positive control, CLR/RAMP3 antagonist assay [6]: 102 % of positive control

miniPEG-K(Palmitoyl)GCRFGTCTVQKLAHQIYQFTDKDVAPRSKISPQGY-NH2 (ends and bridges not checked) [SEQ ID NO: 101]
EC50 (nM), CLR/RAMP3 cAMP assay [5]: 0.5 nM

Palmitoyl-KVQNLSHRLWQLMGPAGSAPVDPSSPHSY-NH2 [SEQ ID NO: 120]
IC50 (nM), CGRP-stimulated CLR/RAMP1 cAMP assay [1]: 5.8 nM | IC50 (nM), ADM-stimulated CLR/RAMP2 arrestin assay [2]: 85 nM | IC50 (nM), CLR/RAMP3 cAMP antagonist assay [6]: 9.2 nM

[AEEA]K(Palmitoyl)VQKLAHQIYQFTDKDSAPVDPSSPHSY-NH2 [SEQ ID NO: 112]
IC50 (nM), CGRP-stimulated CLR/RAMP1 cAMP assay [1]: 1.8 nM | IC50 (nM), ADM-stimulated CLR/RAMP2 arrestin assay [2]: 5.3 nM | IC50 (nM), CLR/RAMP3 cAMP antagonist assay [6]: 2.3 nM

KGCRFGTCTVQKLAHQIYQFTDKDKDNVAPRSKISPQGY (N-terminal miniPEG; palmitoyl on Lys 1 side chain, K(PAL); C-terminal amide) [SEQ ID NO: 69]
EC50 (nM), CLR/RAMP2 arrestin assay [4]: 0.6 nM | EC50 (nM), CLR/RAMP3 cAMP assay [5]: 0.6 nM

miniPEG-K(Palmitoyl)GCRFGTCTVQKLAHQIYQFTDKDSAPVDPSSPHSY-NH2 (ends and bridges not checked) [SEQ ID NO: 48]
EC50 (nM), CLR/RAMP1 cAMP assay [3]: 0.3 nM | EC50 (nM), CLR/RAMP2 arrestin assay [4]: 0.2 nM | EC50 (nM), CLR/RAMP3 cAMP assay [5]: 0.07 nM

Palmitoyl-KVQKLAHQIYSAPVDPSSPHSY-NH2 [SEQ ID NO: 122]
IC50 (nM), CGRP-stimulated CLR/RAMP1 cAMP assay [1]: 7.3 nM | IC50 (nM), ADM-stimulated CLR/RAMP2 arrestin assay [2]: 61 nM | IC50 (nM), CLR/RAMP3 cAMP antagonist assay [6]: 4.1 nM

Ac-VTHRLAGLLSRFTDKDKDNVAPRSKISPQGY-NH2 [SEQ ID NO: 115]
IC50 (nM), CGRP-stimulated CLR/RAMP1 cAMP assay [1]: 1880 nM | IC50 (nM), ADM-stimulated CLR/RAMP2 arrestin assay [2]: 117 nM | IC50 (nM), CLR/RAMP3 cAMP antagonist assay [6]: 115 nM
